Legend:
CD74 (human) = CD74 (human) (UniProt P04233); assay: cell-based or functional assay
CD20 (human) = CD20 (human) (UniProt P11836); assay: cell-based or functional assay
Chain of CD20 (human) (P11836 whole entry): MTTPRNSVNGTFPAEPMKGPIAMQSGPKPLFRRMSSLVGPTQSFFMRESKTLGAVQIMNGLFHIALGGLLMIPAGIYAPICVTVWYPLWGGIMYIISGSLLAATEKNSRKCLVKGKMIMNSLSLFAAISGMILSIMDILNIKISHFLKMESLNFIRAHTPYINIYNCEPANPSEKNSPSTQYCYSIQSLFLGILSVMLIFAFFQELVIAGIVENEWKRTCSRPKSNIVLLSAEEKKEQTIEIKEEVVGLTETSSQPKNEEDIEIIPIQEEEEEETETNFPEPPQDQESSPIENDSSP

Chain of CD74 (human) (P04233 whole entry): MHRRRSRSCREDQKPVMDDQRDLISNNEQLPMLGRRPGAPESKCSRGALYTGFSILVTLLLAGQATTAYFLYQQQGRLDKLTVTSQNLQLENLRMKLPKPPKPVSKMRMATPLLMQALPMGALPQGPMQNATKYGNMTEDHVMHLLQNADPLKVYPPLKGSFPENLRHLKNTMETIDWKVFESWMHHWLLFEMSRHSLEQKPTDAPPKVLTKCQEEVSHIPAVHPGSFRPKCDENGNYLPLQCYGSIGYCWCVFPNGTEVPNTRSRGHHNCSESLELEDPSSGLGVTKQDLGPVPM

Work on 74-(74)-(74) (antibody) yielded an EC50 (nM), MTS assay, JeKo-1 (CD74 (human)) greater than 100 nM.

With Hex-hA20 (antibody) the EC50 (nM), MTS assay, Daudi (CD20 (human)) was 5.8 nM, the EC50 (nM), MTS assay, Granta-519 (CD20 (human)) was 0.2 nM and the EC50 (nM), MTS assay, Mino (CD20 (human)) was 3.4 nM. For the same substance, the EC50 (nM), MTS assay, Raji (CD20 (human)) was 8 nM.

Substance 20-Rap has an EC50, in vitro cytotoxicity, Daudi and Ramos (CD20 (human)) of 0.1 nM and an EC50, in vitro cytotoxicity, Jeko-1 (CD20 (human)) of 0.02 nM.
